Measurements published in PMC3950706, “SUMOylation of the polycomb group protein L3MBTL2 facilitates repression of its target genes” (Nucleic Acids Research, 2013).
Where no end group is shown, it is not given here. Me3 = tri-methylation (trimethyl-lysine); Me2 = di-methylation (dimethyl-lysine)

Experiments:
Details in all cases: both partners purified
[1] = molecular target: T1, 3xFLAG-L3MBTL2 K675/700R mutant (human, UniProt Q969R5 1-705, K675/700R | K675/700R); assay: pull-down; histone peptides immobilised on resin; 3xFLAG-L3MBTL2 immunoprecipitated from N-ethylmaleimide-treated nuclear extracts of stably transfected HEK293 cells and then incubated with the peptides; bound protein detected by anti-FLAG western blot
T1 construct: L3MBTL2, human, with K675R and K700R; Associated proteins may be present after the immunoprecipitation; also called SUMOylation-defective L3MBTL2; K/R; source: HEK293, stably transfected, immunoprecipitated from N-ethylmaleimide-treated nuclear extracts
T1 sequence (Q969R5 other isoform, or with tags, fused parts or gaps K675/700R | K675/700R | K675/700R | K675/700R | mutant): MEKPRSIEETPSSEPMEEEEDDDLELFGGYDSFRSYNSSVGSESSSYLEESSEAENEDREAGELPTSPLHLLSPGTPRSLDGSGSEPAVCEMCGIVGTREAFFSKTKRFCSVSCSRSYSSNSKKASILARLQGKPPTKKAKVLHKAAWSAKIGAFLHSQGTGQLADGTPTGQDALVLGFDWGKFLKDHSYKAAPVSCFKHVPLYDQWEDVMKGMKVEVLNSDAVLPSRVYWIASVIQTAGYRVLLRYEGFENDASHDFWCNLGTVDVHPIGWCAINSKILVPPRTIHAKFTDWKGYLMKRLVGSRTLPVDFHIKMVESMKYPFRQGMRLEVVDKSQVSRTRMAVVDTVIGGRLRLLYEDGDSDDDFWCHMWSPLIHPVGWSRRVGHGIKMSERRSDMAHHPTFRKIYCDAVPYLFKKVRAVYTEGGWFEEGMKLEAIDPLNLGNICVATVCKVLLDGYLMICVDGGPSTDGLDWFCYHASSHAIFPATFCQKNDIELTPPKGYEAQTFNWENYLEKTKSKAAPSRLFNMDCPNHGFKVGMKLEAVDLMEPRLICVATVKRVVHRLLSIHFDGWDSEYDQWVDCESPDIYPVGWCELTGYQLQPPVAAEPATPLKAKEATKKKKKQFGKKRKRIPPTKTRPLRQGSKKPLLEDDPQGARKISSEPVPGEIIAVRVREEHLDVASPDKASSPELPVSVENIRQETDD

[2] = molecular target: T2, wild-type 3xFLAG-L3MBTL2 (human, UniProt Q969R5 1-705); assay: as above
T2 construct: L3MBTL2, human, wild type; The cellular wild-type protein is partly SUMOylated (SUMO2/3 at K675 and K700); Associated proteins may be present after the immunoprecipitation; also called FLAG-L3MBTL2 WT; 3xFLAG-L3MBTL2 WT; source: HEK293, stably transfected, immunoprecipitated from N-ethylmaleimide-treated nuclear extracts
T2 sequence (Q969R5 whole entry): as the sequence (Q969R5 other isoform, or with tags, fused parts or gaps K675/700R | K675/700R | K675/700R | K675/700R | mutant) above, with R675K, R700K counted along it

[3] = molecular target: T3, recombinant full-length His-L3MBTL2 (human, UniProt Q969R5 1-705); assay: pull-down; histone peptides immobilised by a C-terminal cysteine on SulfoLink Coupling Resin; recombinant His-tagged proteins in 25 mM Tris-HCl pH 8, 150 mM NaCl, 2 mM EDTA, 0.5% NP 40, 1 h at 4°C (time course 5-60 min); bound protein detected by anti-His western blot; for SUMOylated L3MBTL2 the in vitro SUMOylation reaction was used
T3 construct: L3MBTL2 (Lethal(3) malignant brain tumour like 2), human, full length; also called 6xHis-L3MBTL2; His-L2; source: bacterially expressed, recombinant
T3 sequence (Q969R5 whole entry): as the sequence (Q969R5 other isoform, or with tags, fused parts or gaps K675/700R | K675/700R | K675/700R | K675/700R | mutant) above, with R675K, R700K counted along it

[4] = molecular target: T4, 4xMBT-repeat domain of L3MBTL2 (human, UniProt Q969R5 170-619); assay: as above
T4 construct: L3MBTL2, human, isolated 4xMBT-repeat domain, aa 170-619; also called His-4xMBT
T4 sequence (Q969R5 170-619): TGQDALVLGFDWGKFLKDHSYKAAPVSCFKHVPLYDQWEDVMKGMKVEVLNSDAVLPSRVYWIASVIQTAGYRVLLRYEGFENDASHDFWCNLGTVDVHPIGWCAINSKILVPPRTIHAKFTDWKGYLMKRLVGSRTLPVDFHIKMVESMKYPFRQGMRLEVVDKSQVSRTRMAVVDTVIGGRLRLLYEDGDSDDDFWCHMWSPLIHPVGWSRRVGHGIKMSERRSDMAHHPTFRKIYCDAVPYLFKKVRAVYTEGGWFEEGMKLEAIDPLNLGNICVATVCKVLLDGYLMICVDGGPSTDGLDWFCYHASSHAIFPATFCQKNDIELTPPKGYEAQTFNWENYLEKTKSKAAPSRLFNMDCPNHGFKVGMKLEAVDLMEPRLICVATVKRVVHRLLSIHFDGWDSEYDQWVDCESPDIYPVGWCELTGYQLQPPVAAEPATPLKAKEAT

Measured: binding result

B1: histone H3 peptide (residues 1-15) tri-methylated at K9 (peptide)
peptide: ARTKQTARKSTGGKAC
modifications: trimethyl-lysine at K9
notes: histone H3, residues 1-15; added C-terminal cysteine, by which the peptide was coupled to SulfoLink resin; also called H3K9me3
binds: [1] | [2] | [3]

B2: histone H3 peptide (residues 1-15) di-methylated at K9 (peptide)
peptide: ARTKQTARKSTGGKAC
modifications: dimethyl-lysine at K9
notes: histone H3, residues 1-15; added C-terminal cysteine, by which the peptide was coupled to SulfoLink resin; also called H3K9me2
binds: [1] | [2] | [3]

B3: histone H3 peptide (residues 1-15) mono-methylated at K9 (peptide)
peptide: ARTKQTARKSTGGKAC
modifications: monomethyl-lysine at K9
notes: histone H3, residues 1-15; added C-terminal cysteine, by which the peptide was coupled to SulfoLink resin; also called H3K9me1
binds: [1] | [2] | [3]

B4: histone H4 peptide (residues 16-25) mono-methylated at K20 (peptide)
peptide: KRHRK(Me)VLRDNC
notes: histone H4, residues 16-25; added C-terminal cysteine, by which the peptide was coupled to SulfoLink resin; also called H4K20me1
binds: [1] | [2] | [3]

B5: histone H4 peptide (residues 16-25) tri-methylated at K20 (peptide)
peptide: KRHRK(Me3)VLRDNC
notes: histone H4, residues 16-25; added C-terminal cysteine, by which the peptide was coupled to SulfoLink resin; also called H4K20me3
binds: [1] | [2] | [3]

B6: unmethylated histone H3 peptide (residues 1-15) (peptide)
peptide: ARTKQTARKSTGGKAC
notes: histone H3, residues 1-15; added C-terminal cysteine, by which the peptide was coupled to SulfoLink resin
binds: [1] | [2] | [3]

B7: unmethylated histone H4 peptide (residues 16-25) (peptide)
peptide: KRHRKVLRDNC
notes: histone H4, residues 16-25; added C-terminal cysteine, by which the peptide was coupled to SulfoLink resin; also called H4K20
binds: [1] | [2] | [3]

B8: histone H4 peptide (residues 16-25) di-methylated at K20 (peptide)
peptide: KRHRK(Me2)VLRDNC
notes: histone H4, residues 16-25; added C-terminal cysteine, by which the peptide was coupled to SulfoLink resin; also called H4K20me2
binds: [1] | [2] | [3] | [4]
